Blank lines part the entries; values can stand above or below the binder they belong to.
Legend:
human SIRPα variant 2 = biological target: T1, human SIRPα variant 2 (human, UniProt P78324 31-504); assay: flow cytometry, blockade of DyLight488-hCD47/Fc binding to THP-1 cells
T1 construct: full length ORF on transfected CHO-K1 cells; also called hSIRPαV2; SIRPαV2
Procedure: For this purpose, THP-1 (ATCC TIB-202) and U-937 (ATCC CRL-1593.2) monocyte cell lines were used as the source of hSIRPα in the assay. THP-1 and U-937 cells were seeded in 96-well round bottomed tissue culture plates and incubated for 45 minutes with FcR Blocking Reagent (Miltenyi Biotec) and hSIRPα.50A antibody (200 μg/mL and dilutions thereof) in PBS/1% BSA at 4° C. […] After this labeling procedure, cells were washed two times, resuspended in PBS/1% BSA containing 0.1 μg/mL DAPI (BioLegend), and analysed by flow cytometry on the FACSCanto II (BD Biosciences). Data were processed and analysed with FlowJo V10 software (FlowJo, LLC).
As depicted in FIG. 4 and the following Table 11, binding of recombinant hCD47 fused to an Fc domain of human IgG1 was monitored in the presence of increasing amounts of the hSIRPα.50A antibody. Antibody hSIRPα.50A blocked the hSIRPα/hCD47 interaction, using the flow cytometry-based method described above. […] IC50 values represent the concentration at which half of the inhibition is observed.

hSIRPαV1(P74A) = biological target: T2, hSIRPαV1(P74A) (human, UniProt P78324 31-504); assay: CELISA, CHO-K1 transfectants
T2 construct: also called P74A variant of hSIRPαV1
T2 sequence (P78324 31-504 P74A limits assumed): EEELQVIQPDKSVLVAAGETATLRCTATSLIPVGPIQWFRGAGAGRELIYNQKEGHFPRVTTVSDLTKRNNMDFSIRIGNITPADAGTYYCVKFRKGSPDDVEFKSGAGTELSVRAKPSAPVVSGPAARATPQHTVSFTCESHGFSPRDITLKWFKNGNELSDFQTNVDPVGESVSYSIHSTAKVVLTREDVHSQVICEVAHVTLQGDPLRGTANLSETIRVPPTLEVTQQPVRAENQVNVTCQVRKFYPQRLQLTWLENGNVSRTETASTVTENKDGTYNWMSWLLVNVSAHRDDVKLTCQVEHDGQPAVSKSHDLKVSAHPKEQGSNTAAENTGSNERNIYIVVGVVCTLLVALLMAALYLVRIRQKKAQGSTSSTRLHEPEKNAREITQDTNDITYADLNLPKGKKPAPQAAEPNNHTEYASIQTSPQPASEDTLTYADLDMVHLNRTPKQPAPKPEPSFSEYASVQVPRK
Procedure: (§1) The specificity of monoclonal anti-hSIRPα antibodies (e.g., including the hSIRPα antibodies known in the art, KWAR23 ([…]. Patent CA2939293 A1), 18D5 (Patent WO2017/178653 A2), and various commercially available hSIRPα antibodies) for binding to hSIRPαV1, hSIRPαV1(P74A), and hSIRPβ1 was evaluated by CELISA. Reactivity was confirmed using CHO-K1 cells (ATCC CCL-61) expressing a cDNA encoding the full length open reading frame of hSIRPαV1, hSIRPαV1(P74A), and hSIRPβ1 subcloned into the pCI-neo vector (Promega, Madison, Wis.). CHO-K1.hSIRPαV1, CHO-K1.hSIRPαV1(P74A), and CHO-K1.hSIRPβ1 cells were seeded in culture medium (DMEM-F12 (Gibco) supplemented with 5% New Born Calf Serum (BioWest) and Pen/Strep (Gibco)) in 96-well flat-bottom tissue culture plates and incubated at 37° C., 5% CO₂ and 95% humidity for 24 hours. Subsequently, culture medium was removed and cells were incubated for 1 hour at 37° C., 5% CO₂ and 95% humidity with purified hSIRPα antibodies (used at 10 μg/ml and dilutions thereof). Next, cells were washed with PBS-T and incubated for 1 hour at 37° C., 5% CO₂ and 95% humidity with either goat-anti-mouse IgG-HRP (Southern Biotech), goat-anti-human IgG-HRP (Jackson Immuno Research), or goat-anti-rabbit IgG-HRP (Southern Biotech). Subsequently, cells were washed three times with PBS-T and immunoreactivity against hSIRPαV1, hSIRPαV1(P74A), and hSIRPβ1 was visualized with TMB Stabilized Chromogen (Invitrogen). Reactions were stopped with 0.5 M H₂SO₄ and absorbances were read at 450 and 610 nm.

human SIRPβ1 = biological target: T3, human SIRPβ1 (human, UniProt O00241 30-398); assay: CELISA, CHO-K1 transfectants
T3 construct: also called hSIRPβ1
T3 sequence (O00241 30-398 limits assumed): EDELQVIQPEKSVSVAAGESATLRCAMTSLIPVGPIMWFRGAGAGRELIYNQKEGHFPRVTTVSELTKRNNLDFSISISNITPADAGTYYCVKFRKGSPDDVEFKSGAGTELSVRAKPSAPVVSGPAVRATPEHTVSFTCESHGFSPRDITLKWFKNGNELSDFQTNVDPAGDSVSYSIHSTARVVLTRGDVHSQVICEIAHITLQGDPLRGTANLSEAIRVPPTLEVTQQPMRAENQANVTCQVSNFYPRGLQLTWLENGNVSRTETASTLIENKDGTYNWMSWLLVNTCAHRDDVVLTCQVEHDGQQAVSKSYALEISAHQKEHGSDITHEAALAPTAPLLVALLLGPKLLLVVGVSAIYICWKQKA
Procedure: as §1

T1 sequence (P78324 other isoform, or with tags, fused parts or gaps mutant limits assumed): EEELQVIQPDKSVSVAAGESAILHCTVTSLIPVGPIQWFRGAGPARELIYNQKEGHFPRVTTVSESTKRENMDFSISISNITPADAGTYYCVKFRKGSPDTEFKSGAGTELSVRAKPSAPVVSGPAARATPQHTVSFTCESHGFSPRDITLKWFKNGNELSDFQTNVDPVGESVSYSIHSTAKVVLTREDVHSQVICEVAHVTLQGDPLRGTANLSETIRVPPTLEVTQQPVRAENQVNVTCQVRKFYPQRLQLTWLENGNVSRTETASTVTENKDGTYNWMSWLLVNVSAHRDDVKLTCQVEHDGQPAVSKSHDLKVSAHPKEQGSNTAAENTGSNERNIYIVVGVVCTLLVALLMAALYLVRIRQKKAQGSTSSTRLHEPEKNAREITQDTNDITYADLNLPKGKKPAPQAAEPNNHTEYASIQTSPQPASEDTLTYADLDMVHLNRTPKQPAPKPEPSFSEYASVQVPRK

IC50 (human SIRPα variant 2): 4600 pM
B1: hSIRPα.50A (antibody, V domains shown)
VH: QVQLQQSGPELVKPGASVRISCKASGFTFTNYYIHWVKQRPGQGLEWIGWIYPGNVNTKYNEKFKAKATLTADKSSTTAYMQLSSLASEDSAVYFCARPTIIATDFDVWGAGTTVTVSS
VL: DIVMTQSHKFMSTSVGDRVNITCKASQGVGTAVGWYQQKPGQSPRLLIYWASTRHTGVPDRFTGSGSGTDFSLAISNVQSEDLADYFCQQYSTYPFTFGGGTNLEIK
notes: light chain constant domain not tied; also called mouse hSIRPα.50A; hSIRPα.50A.mIgG1

EC50 (hSIRPαV1(P74A)): 77 pM
EC50 (human SIRPβ1): 65 pM
B2: KWAR23 (antibody, V domains shown)
VH: EVQLQQSGAELVKPGASVKLSCTASGFNIKDYYIHWVQQRTEQGLEWIGRIDPEDGETKYAPKFQDKATITADTSSNTAYLHLSSLTSEDTAVYYCARWGAYWGQGTLVTVSS
VL: QIVLTQSPAIMSASPGEKVTLTCSASSSVSSSYLYWYQQKPGSSPKLWIYSTSNLASGVPARFSGSGSGTSYSLTISSMEAEDAASYFCHQWSSYPRTFGAGTKLELK

Reference: patent US20180312587A1 (ADURO BIOTECH HOLDINGS EUROPE B V, published 2018)
